Consider 23 sequences from the DeepSol protein solubility set.

This data set is described as follows: soluble on expression in E. coli; label from the status in PepcDB or PDB records.
In the case of “MSLGAWPTAPITIVVPFAAGQTGDIIARLLGKELAERLKQPFVVDNKGGGGGRIGTAFVAKAKPDGYTLLMTSTGPYAIAPALYPRTMQYDPVRDFTGIAETATTPQIIAVSPKSGINTFADLVKQAKKSDMSYGSAGNGSTQHLTMELLKKELNFPLVHVPFKGSSESKTQVISGMIPVTSDSLPAIYTNIKSGQMKAIAVVDKQRSAYLPDVPTLAESGFPSLSTVAFFGLVAPKNTPKEVVNLLNKNLTEIYRTPDFQQKMKELAMTPPAEKTAEQFTAYLTEEVARWKKIVQDSNVKVEEGHHHHHH”, the “soluble on expression in E. coli” value was “soluble”.

Regarding “MGSDKIHHHHHHMTNENLCAGRNRYDGVSIDFFSDADLRAIDSATMDVFQNPGIQVSDAESRALFKEAGCDVNEKTMVVKIPEHVVRRAIMTAPSKITLYGREKQHTFTQQAGGKVHYTCFGTGVKMCKYEAPGVFKTVDSTEEDLANTARVCDWADNIDSYSLAVSARDWAGKGAQDVHETFTPLMNTSKHFFHIDPVGENVEYYWDILKAYYGGDEEQARSRPIFSELLCPTSPLKIGTNACQLILKSVNFGIPINVISMAMSGASCPVHLAGTLVTHNAEVLSGIVLAQLASPGAKVWYGSSTTAFDLKHGTAPVGSPELGLISAAVAKLGQYYDLPTYVAST”, the “soluble on expression in E. coli” value is “not soluble”.

Regarding “KPYPYQQDMLESLQAEREQHNRHRNLLVAATGTGKTVVAALDYRSMCDALGRRPRLLFIAHRKEILQQALRTFREVLSDGNFGELLVDGVLPKEWTHVFASIQSLNTSRMEALGKDHFEFIIIDEFHHAQAISYRKVMDYFEPQELLGLTATPERG”, the “soluble on expression in E. coli” value was “not soluble”.

As for “MGSDKIHHHHHHMSESAESVDLIKLPVSKLTLGMFVSAIDKNDQGRLAIANAGQIKHKDAILKLTKNGIKYVWVDTERSAEHCGFKRKVSNDSQVKKSIVTREKQQEQAQVILTEAKDLIRKVLSETFEGKAIEVAPFEALADSMIESVLLDEDALKCMSALRTKDAYLLEHSVNVAFLLVTFGKYLKLDRSMLREMAVGGILHDIGKIKVDNKVLHKPGKLTPEEFEHMKLHQVYALEIMSETKGLSQISKDVCLMHHEKLDGRGYPRGLKGDEIPLHGRMSCIVDIFDALTATRCYKEAMSPAAAFKILLSLTPFHLDQQLVYDFIRCIGVYPVGSLVELSDGRVGIVWASKDRDALHPIVKCFYSLKAKRYTEVVIVDLLKSELHIERGVSPSSLDIDPTPFY”, the “soluble on expression in E. coli” value is reported as “not soluble”.

With “MSLNGPLKIGYYKIGAAYRDGKGYDVDMVRELARRLGCPIANETELPRLRALKMLETGQIDVSASTLATPDRLQYAWIYQYNHAKNMVLLNPAIQARTLATLLEDPALRWGAIRGYHHGPSQDKLLEELNARHKVVIANDEDDLYKMLGNGVVTAVFAQPFSYGRWLRELPNPNQIVVLDLYPETDMVASGLALSKARFSREAAEKWHQELLKMYQDGSLYDIMRRYLNEGHHHHHH”, the “soluble on expression in E. coli” value is recorded as “not soluble”.

“GPLQVSNARLLFPISMPEDEGVVRLVVNNTDESDLQVAVVSLPSFVSLDDRAFRLQAREPRELNLSLAVPRNMPPGMKDEPLVLEVTSPETGKKAVDSVMVSLPLVDNFPALTAAQTGVMELSTYLDMGQLDGETTKAAIEIRNVGAGPLRLHSVTTRNPALTAVPDRTEIKPGGSTLLRIAVDPQVMKAEGWQSIAADISIICNDPQAPLRRIKVKAEL”: the “soluble on expression in E. coli” value is “soluble”.

As for “MGSDKIHHHHHHMSKPSPRHLWHVQPGSNVITHPLKQSHYLNVELMSLEIVAEYPRPPALVACSDHVIVEALGTRICETHDCLRVLETFHPPTYYLPPKAMRKDLLIRSRRSSFCEWKGIANYWDLVIADKRLEGAIWSYPDPTPTFRALTGWYALYPGRMDHCSVNGETVIPQPGQFYGGWITSQVVGPFKGDPAHPQLI”, the “soluble on expression in E. coli” value is “not soluble”.

As to “GPGSMERIPLVVRRMVAAEQSCGFVHFFASLADASATPLVIEAKAFSSAAAGGAADDAAPTYQLVYDVMRSRNGHILFKKSYAERFTHSLALAAPVHALPAQLRSLVQSRLQAYIESPGVYLDGATERNVKLLSWIPATAASTTQEEAFPIPGIVMLVKSSYPSESMYREGAKLGLLFNAHRTNPNAKVAQMGLRDRANAYLAENDVYEVLLVHDAADAYLVPEGSRSNYLLQKSDGTWWCSAEEDILVGITLKTTYRVVQACGLGSVQHAKLTLKDILESKSLFILGTSPTIMPVQSVLLYRDTETRRLYEEAVRGLGTTAGTVQQVSDDKAELLFPVNVELAAALRAQYFAEAASS”, the “soluble on expression in E. coli” value was “not soluble”.

As to “MGSDKIHHHHHHMCMYVFVKERVESRSFIPEEKIFELLEKTKNPDPARVREIIQKSLDKNRLEPEETATLLNVEDPELLEEIFEAARTLKERIYGNRIVLFAPLYIGNDCINDCVYCGFRVSNKVVERRTLTEEQLKEEVKALVSQGHKRLIVVYGEHPNYSPEFIARTIDIVYNTKYGNGEIRRVNVNAAPQTIEGYKIIKSVGIGTFQIFQETYHRETYLKLHPRGPKSNYNWRLYGLDRAMMAGIDDVGIGALFGLYDWKFEVMGLLYHTIHLEERFGVGPHTISFPRIKPAINTPYSQKPEHVVSDEDFKKLVAIIRLSVPYTGMILTAREPAKLRDEVIKLGVSQIDAGSRIGIGAYSHKEDDEDRKRQFTLEDPRPLDQVMRSLLKEGFVPSFCTACYRAGRTGEHFMEFAIPGFVKNFCTPNALFTLQEYLCDYATEETRKVGEEVIERELQKMNPKIRERVREGLEKIKRGERDVRF”, the “soluble on expression in E. coli” value is on record as “not soluble”.

With “MLVNKVEICGVNTSKLPVLTNEQKKELFERMHKGDTSAREEFIKGNLRLVLSVIQRFNNRGEYVDDLFQVGCIGLIKAIDNFDVTQNVKFSTYAVPMIIGEIRRYLRDNNAIRVSRSLRDIAYKALQAKEKLTNQNSKEPTIEEIAKELGLPKEEVVFALDAIQDPISLFESVYHDGGDAIYVMDQVKDEKNNDENWLEGIALSEAMRKLNDREKLILNLRFFDGRTQMEVAEEIGISQAQVSRLEKTALMHMRKYI”, the “soluble on expression in E. coli” value is “not soluble”.

For “GPGSMTSPKIKAVFVDMDGTLFNSDHLISPRTAKVIHALEERGVAFVVATGRPFPDVFGNLAQTELRPDFIITSNGARVHDAQHNILFACDMDAESVCRLFQLSPHLSEDGVVDPSVQARRILCNVNCRDRWLTNECIPEVRAAFHPSFIYERVDPMVQTAKTLEGTHSMWIRGAHADLVCVQKYVDRELSGEIRCAFALPHILDCFRKDVNKGAAMEKVCKHLRIDLRETIAFGDGMNDIRMLTAAGQGFVMANAAEMVKQAAPELPVIQSNNEEGVAWKLEELLAADAFVG”, the “soluble on expression in E. coli” value is reported as “soluble”.

On to “MAGQSKIIVGGVIGGTSEQEPKGFLDLPVELYQKIIGKLDLHERFRVRKSNQTLRQFIDQMDPAISQIRVSISDSDKCDDWVSRSVRVMAEMLSSSIYPDVKNISTCGLPSSQIAQILPSFQAGKLENLDLYYCGKPTAEDMETIVNSDQWKNAKNISGFRGLSNIRIKDLLHFSLVCVDYATISVETAIEIKDILLTSSNIKHAYFTSKSVLDVNVIRVFDPKAAKVHRKRNLSNLVRNTDFADFTFSSNQKVLRFKKKN”, for which the “soluble on expression in E. coli” value is recorded as “not soluble”.

On to “MMEPITKETRFNELPQQIKQKLINIYRSSHQQYLSMEMLKPTKFNLLYSQTQDLQTRNLQKNFKLLVESAEKLKRMWNLNKDEVDFRYLHENLKKSLEEFKEEVMLYKKNEGNTEFLDEIAMTYAMLRNKLESLTKERRA”, for which the “soluble on expression in E. coli” value was “not soluble”.

“MTWPAFSLGVWGYPERMDPRVPPGQFVTERFPILTYGETPKVAKEAWRLEVTGLVETPLVLTYEDLLARPQVELTRDFHCVTRWSRLDVTWKGVRTRDLLEEARPRPEAVAALVESYGGYTTNLLLEDLLREDVLLAHTLFGKPLPPERGGPVRLLVPHLYAWKSAKWVRRIVLLDHLELGFWERLGYHWRGDPWKEERFQEGPVPAHRIRFAARNKPGR”: the “soluble on expression in E. coli” value is on record as “soluble”.

In the case of “MGSDKIHHHHHHAGFIFLPKENETASTTVEEVKWLTYDQAVALSKKNPKPIFIDVYTDWCGWCKTMDKNTFSNHKVAAYLNKRFYSVKLNPEKKDTVHYKGVAMTNGALAGKIFHATSYPTTVYLEGDETLLQPIPGYQAPNDLYRIIHYIGENHYKTTTWDDFSKSFNESAE”, the “soluble on expression in E. coli” value was “not soluble”.

“MGSDKIHHHHHHMTLVASSCTDVLDQMPTTEDTSKEVYADAANYKKVLAKIYASYVLAGQGQGGDNGDLKSINKQDFSRGYFNLQEAATDEVANTWLSGNNLSDLTYISWDAKDSWVSDSYYWLFFNIALCNEFLRHCSDEEIARFSEAEQTEIRTFRSEARFMRSFSYWMVLDLYRQGPKVDENTPVIGYIPEAYDGIGMFDFIESELKELVAEGVSSALPATNEYGRASKPVAWALLARLYLNSAIYRGNVDTKYYTECITACKQVISNPAFYLEPEYAKLFNADNHKRTHEILFAMVCDATTSVTWGGGTYIICGSCGNSSTQDPAKYGLSNGWGMFRARGEMTAKFGDIATTKDSRAMFYTDGQAQFFTGAIDNQAEGYFFEKFSNLTDEGVAASNSAATGCSTDYPLLRLADIYLMAAEAQLRGGTGLSRAEALELVNQVRLRAYNQDESGKISDSDFTLDFILDERARELYLESVRRTDLIRFNKFVSADYIWQWKGGVLDGRAVNKKYNIYPIPDTDLTANPNLHNPLY”: the “soluble on expression in E. coli” value was “not soluble”.

As to “AHHHHHHGSPKIGIIGGSGVYGIFEPKETVKVHTPYGRPSAPVEIGEIEGVEVAFIPRHGKYHEFPPHEVPYRANIWALHELGVERVIAVNAVGSLKEEYKPGDIVIIDQFIDFTKKREYTFYNGPRVAHISMADPFCPELRRIFIETAKELNLPVHEKGTYICIEGPRFSTRAESRMFRQFADVIGMTLVPEVNLARELGMCYVNISTVTDYDVWAEKPVDAQEVLRVMKENEEKVQKLLKRAIPKIPEERKCGCADVLKTMFV”, the “soluble on expression in E. coli” value is “not soluble”.

Take “LKEILDEMFRDEVQKLKYFLEDVKEEDEELYNKIVDALKLFKENYEIEDIKIPKKIRVFLVKNNILFLNPQKGSLKPQSYLVWNAIKMLL”: the “soluble on expression in E. coli” value was “not soluble”.

Consider “MGVEIQSPQEQSSYTVEQLVALNPFNPEILPDLENYVNVTSQTYSLEVNLCLLRLYQFEPERMNTHIVARILVKALMAMPTPDFSLCLFLIPERVQMEEQFKSLIVLSHYLETGRFQQFWDEAAKNRHILEAVPGFEQAIQAYASHLLSLSYQKVPRSVLAEAVNMDGASLDKFIEQQVTNSGWIVEKEGGSIVLPQNEFNHPELKKNTGENVPLEHIARIFPILG”, for which the “soluble on expression in E. coli” value is “not soluble”.

Consider “MVLPLSLLKTAQNHPMLVELKNGETYNGHLKACDSWMNIHLVDVIFTSKDGDKFFKMSEAYVRGSTIKYLRIPETVVDLVKTEVNEVRRQQQREQSRGRGGGRGGRGGHRGGGGNRGGRGGAR”, for which the “soluble on expression in E. coli” value is recorded as “not soluble”.

Consider “MTTTTPIRLLVRPITAGDNLAIANVIREVSAEFGLTADKGYTVSDPNLDHLYELYSQPRSAYWVIEVDGHIAGGGGVAPLLGGEADLCELQKMYFLPILRGKGLAKQLALQALAFARQQGFGRCYLETTASLTSAVGLYERLGFEHIGGAMGNTGHVDCEVTMLKTL”, for which the “soluble on expression in E. coli” value was “not soluble”.

Turning to “MASEHHEALNLYAVRVARGEGVKQDFARAASLFRRADRCGFNCEPVYDDMVNDFRDKAFGMELVSSKRAFLKALRPETAEARCTVGEAFIGQGDADSLRTGRELLTSAATLGSGKAMYLLGVLCRDGKGVAANAERAFMWFSLAASCGFAKAESERVNAEGKLDDAGRTRAMQLAARWRRQYLAPVCLEHHHHHH”, the “soluble on expression in E. coli” value is listed as “not soluble”.

“GMSEPYGKAFSLMRAEAEPAWRAYTHHAFVEGLKAGTLPREAFLHYLQQDYVFLIHFSRAWALAVVKSETHSEMLAAVGTVNALVAEEMQLHIGICEASGISQEALFATRERAENLAYTRFVLEAGYSGDLLDLLAALAPCVMGYGEIGKRLTAEATSTLYGDWIDTYGGDDYQAACKAVGTLLDDALERRLGAEFTSSPRWSRLCQTFHTATELEVGFWQMGLTP”: the “soluble on expression in E. coli” value is given as “soluble”.
